# Assay results as given in patent US7410949 (Hoffmann-La Roche, dated 2008).
# *1 amine or outer side, *2 acyl side, *3 side chain or, on linkers, in order; H or OH if unused. Bridges are numbered along the chain shown (N, C = ends). [ ]: non-standard residue; d: D form. Pqa = N-piperazin-1-yl-4(3H)-quinazolinone-3-acetic acid, O=C(Cn1cnc2ccc(N3CCN([*:1])CC3)cc2c1=O)[*:2]; Cms = N-(5-O-carboxymethyl)-serotonin, O=C(COc1ccc2[nH]cc(CCN[*:1])c2c1)[*:2]; Phe(3,4,5-F3) = N[C@@H](Cc1cc(F)c(F)c(F)c1)C(=O)O; Phe(F5) = N[C@@H](Cc1c(F)c(F)c(F)c(F)c1F)C(=O)O; Nle = CCCC[C@H](N)C(=O)O
# T1: human NPY2 receptor (human, UniProt P49146 1-381)
# T1 sequence (looked up): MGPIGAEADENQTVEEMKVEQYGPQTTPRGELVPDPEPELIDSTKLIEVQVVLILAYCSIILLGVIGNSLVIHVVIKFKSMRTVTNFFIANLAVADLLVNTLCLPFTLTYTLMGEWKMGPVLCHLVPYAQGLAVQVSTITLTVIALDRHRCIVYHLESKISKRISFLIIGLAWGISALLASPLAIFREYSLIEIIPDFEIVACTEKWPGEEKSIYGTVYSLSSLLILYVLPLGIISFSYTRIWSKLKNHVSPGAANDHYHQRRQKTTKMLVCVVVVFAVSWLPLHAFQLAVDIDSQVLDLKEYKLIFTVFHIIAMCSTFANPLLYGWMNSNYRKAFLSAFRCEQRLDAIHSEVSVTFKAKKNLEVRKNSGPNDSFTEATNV
# B1: H-Ile-Lys-Pqa-Arg-His-Tyr-Leu-Asn-Leu-Ala-Thr-Arg-Gln-Arg-Tyr-NH2 (peptide)
# peptide: H-IK[Pqa]RHYLNLATRQRY-NH2
# SMILES: CC[C@H](C)[C@H](N)C(=O)N[C@@H](CCCCN)C(=O)N1CCN(c2ccc3ncn(CC(=O)N[C@@H](CCCNC(=N)N)C(=O)N[C@@H](Cc4c[nH]cn4)C(=O)N[C@@H](Cc4ccc(O)cc4)C(=O)N[C@@H](CC(C)C)C(=O)N[C@@H](CC(N)=O)C(=O)N[C@@H](CC(C)C)C(=O)N[C@@H](C)C(=O)N[C@H](C(=O)N[C@@H](CCCNC(=N)N)C(=O)N[C@@H](CCC(N)=O)C(=O)N[C@@H](CCCNC(=N)N)C(=O)N[C@@H](Cc4ccc(O)cc4)C(N)=O)[C@@H](C)O)c(=O)c3c2)CC1
# B2: Cyclo Lys28-Aspu32 Ac-Ile-Nle-Cms-Arg-His-Tyr-Lys-Asn-Leu-Val-Asp-Arg-Gln-Arg-Tyr-NH2 (peptide)
# peptide: Ac-I[Nle][Cms]RHYKNLVDRQRY-NH2
# modifications: lactam 7-11
# SMILES: CCCC[C@H](NC(=O)[C@@H](NC(C)=O)[C@@H](C)CC)C(=O)NCCc1c[nH]c2ccc(OCC(=O)N[C@@H](CCCNC(=N)N)C(=O)N[C@@H](Cc3c[nH]cn3)C(=O)N[C@@H](Cc3ccc(O)cc3)C(=O)N[C@H]3CCCCNC(=O)C[C@@H](C(=O)N[C@@H](CCCNC(=N)N)C(=O)N[C@@H](CCC(N)=O)C(=O)N[C@@H](CCCNC(=N)N)C(=O)N[C@@H](Cc4ccc(O)cc4)C(N)=O)NC(=O)[C@H](C(C)C)NC(=O)[C@H](CC(C)C)NC(=O)[C@H](CC(N)=O)NC3=O)cc12
# B3: H-Ile-Lys-Pqa-Arg-His-Tyr-Leu-Ala-Leu-Val-Thr-Arg-Gln-Arg-Tyr-NH2 (peptide)
# peptide: H-IK[Pqa]RHYLALVTRQRY-NH2
# SMILES: CC[C@H](C)[C@H](N)C(=O)N[C@@H](CCCCN)C(=O)N1CCN(c2ccc3ncn(CC(=O)N[C@@H](CCCNC(=N)N)C(=O)N[C@@H](Cc4c[nH]cn4)C(=O)N[C@@H](Cc4ccc(O)cc4)C(=O)N[C@@H](CC(C)C)C(=O)N[C@@H](C)C(=O)N[C@@H](CC(C)C)C(=O)N[C@H](C(=O)N[C@H](C(=O)N[C@@H](CCCNC(=N)N)C(=O)N[C@@H](CCC(N)=O)C(=O)N[C@@H](CCCNC(=N)N)C(=O)N[C@@H](Cc4ccc(O)cc4)C(N)=O)[C@@H](C)O)C(C)C)c(=O)c3c2)CC1
# B4: H-Ile-Lys-Pqa-Arg-His-Tyr-Leu-Asn-Leu-Val-Thr-(D)Arg-Gln-Arg-Tyr-NH2 (peptide)
# peptide: IKRHYLNLVTRQRY
# modifications: (D)Arg at PYY position 33 (residue 9 of the second part); Pqa moiety between the two parts; C-terminal amide
# B5: H-Ile-Lys-Pqa-Arg-His-Tyr-Leu-Asn-Leu-Val-Thr-Arg-Gln-(D)Arg-Tyr-NH2 (peptide)
# peptide: IKRHYLNLVTRQRY
# modifications: (D)Arg at PYY position 35 (residue 11 of the second part); Pqa moiety between the two parts; C-terminal amide
# B6: Ac-Ile-Nle-Pqa-(2,3,4,5,6 Penta fluoro Phe)-His Tyr-Leu-Asn-Leu-Val-Thr-Arg-Gln-Arg-Tyr-NH2 (peptide)
# peptide: Ac-I[Nle][Pqa][Phe(F5)]HYLNLVTRQRY-NH2
# SMILES: CCCC[C@H](NC(=O)[C@@H](NC(C)=O)[C@@H](C)CC)C(=O)N1CCN(c2ccc3ncn(CC(=O)N[C@@H](Cc4c(F)c(F)c(F)c(F)c4F)C(=O)N[C@@H](Cc4c[nH]cn4)C(=O)N[C@@H](Cc4ccc(O)cc4)C(=O)N[C@@H](CC(C)C)C(=O)N[C@@H](CC(N)=O)C(=O)N[C@@H](CC(C)C)C(=O)N[C@H](C(=O)N[C@H](C(=O)N[C@@H](CCCNC(=N)N)C(=O)N[C@@H](CCC(N)=O)C(=O)N[C@@H](CCCNC(=N)N)C(=O)N[C@@H](Cc4ccc(O)cc4)C(N)=O)[C@@H](C)O)C(C)C)c(=O)c3c2)CC1
# B7: Ac-Ile-Nle-Pqa-(3,4,5 Trifluoro Phe)-His-Tyr-Leu-Asn-Leu-Val-Thr-Arg-Gln-Arg-Tyr-NH2 (peptide)
# peptide: Ac-I[Nle][Pqa][Phe(3,4,5-F3)]HYLNLVTRQRY-NH2
# SMILES: CCCC[C@H](NC(=O)[C@@H](NC(C)=O)[C@@H](C)CC)C(=O)N1CCN(c2ccc3ncn(CC(=O)N[C@@H](Cc4cc(F)c(F)c(F)c4)C(=O)N[C@@H](Cc4c[nH]cn4)C(=O)N[C@@H](Cc4ccc(O)cc4)C(=O)N[C@@H](CC(C)C)C(=O)N[C@@H](CC(N)=O)C(=O)N[C@@H](CC(C)C)C(=O)N[C@H](C(=O)N[C@H](C(=O)N[C@@H](CCCNC(=N)N)C(=O)N[C@@H](CCC(N)=O)C(=O)N[C@@H](CCCNC(=N)N)C(=O)N[C@@H](Cc4ccc(O)cc4)C(N)=O)[C@@H](C)O)C(C)C)c(=O)c3c2)CC1
# B8: H-Ile-Lys-Pqa-Arg-His-Tyr-Leu-Asn-Leu-(D)Val-Thr-Arg-Gln-Arg-Tyr-NH2 (peptide)
# peptide: IKRHYLNLVTRQRY
# modifications: (D)Val at PYY position 31 (residue 7 of the second part); Pqa moiety between the two parts; C-terminal amide
# B9: H-Ile-Lys-Pqa-Arg-His-Tyr-Leu-Asn-(D)Leu-Val-Thr-Arg-Gln-Arg-Tyr-NH2 (peptide)
# peptide: IKRHYLNLVTRQRY
# modifications: (D)Leu at PYY position 30 (residue 6 of the second part); Pqa moiety between the two parts; C-terminal amide
# B10: H-Ile-Lys-Pqa-Arg-Ala-Tyr-Leu-Asn-Leu-Val-Thr-Arg-Gln-Arg-Tyr-NH2 (peptide)
# peptide: H-IK[Pqa]RAYLNLVTRQRY-NH2
# SMILES: CC[C@H](C)[C@H](N)C(=O)N[C@@H](CCCCN)C(=O)N1CCN(c2ccc3ncn(CC(=O)N[C@@H](CCCNC(=N)N)C(=O)N[C@@H](C)C(=O)N[C@@H](Cc4ccc(O)cc4)C(=O)N[C@@H](CC(C)C)C(=O)N[C@@H](CC(N)=O)C(=O)N[C@@H](CC(C)C)C(=O)N[C@H](C(=O)N[C@H](C(=O)N[C@@H](CCCNC(=N)N)C(=O)N[C@@H](CCC(N)=O)C(=O)N[C@@H](CCCNC(=N)N)C(=O)N[C@@H](Cc4ccc(O)cc4)C(N)=O)[C@@H](C)O)C(C)C)c(=O)c3c2)CC1
# B11: H-Ile-Lys-Pqa-Arg-His-Tyr-Leu-Asn-Leu-Val-Thr-Arg-Gln-(NMe)Arg-Tyr-NH2 (peptide)
# peptide: IKRHYLNLVTRQRY
# modifications: N-methyl Arg at PYY position 35 (residue 11 of the second part); Pqa moiety between the two parts; C-terminal amide
# Target: Y1R
# Assay: cell-based or functional assay
# Y1R, sequence (P25929 whole entry): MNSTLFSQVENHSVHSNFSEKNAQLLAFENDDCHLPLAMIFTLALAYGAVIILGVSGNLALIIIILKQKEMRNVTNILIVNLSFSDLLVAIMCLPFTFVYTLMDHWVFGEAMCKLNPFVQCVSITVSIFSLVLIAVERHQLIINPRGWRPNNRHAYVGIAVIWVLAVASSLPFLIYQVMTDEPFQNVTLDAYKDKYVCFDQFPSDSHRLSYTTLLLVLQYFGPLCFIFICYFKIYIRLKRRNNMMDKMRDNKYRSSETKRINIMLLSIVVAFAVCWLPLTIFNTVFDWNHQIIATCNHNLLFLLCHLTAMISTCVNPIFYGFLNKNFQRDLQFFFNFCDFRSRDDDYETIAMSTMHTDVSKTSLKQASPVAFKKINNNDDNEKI
row,Binder,Y1R EC50(nM) FLIPR [nM]
1,IKRHYLNAVTRQRY (Pqa moiety between the two parts; C-terminal amide) [H-Ile-Lys-Pqa-Arg-His-Tyr-Leu-Asn-Ala-Val-Thr-Arg-Gln-Arg-Tyr-NH2],> 5000
2,IARHYLNLVTRQRY (N-terminal acetyl; Pqa moiety between the two parts; C-terminal amide) [Ac-Ile-Ala-Pqa-Arg-His-Tyr-Leu-Asn-Leu-Val-Thr-Arg-Gln-Arg-Tyr-NH2],> 5000
3,IARHYLNLVTRQRY (Pqa moiety between the two parts; C-terminal amide) [H-Ile-Ala-Pqa-Arg-His-Tyr-Leu-Asn-Leu-Val-Thr-Arg-Gln-Arg-Tyr-NH2],1000
4,B1,> 5000
5,B2,> 5000
6,B3,> 5000
7,AKRHYLNLVTRQRY (Pqa moiety between the two parts; C-terminal amide) [H-Ala-Lys-Pqa-Arg-His-Tyr-Leu-Asn-Leu-Val-Thr-Arg-Gln-Arg-Tyr-NH2],> 5000
8,B4,> 5000
9,B5,> 5000
10,B6,> 5000
11,B7,> 5000
12,B8,> 5000
13,B9,> 5000
14,B10,> 5000

# Target: T1, human NPY2 receptor
# Assay: cell-based or functional assay
Binder,Y2R EC50(nM) FLIPR [nM],Y2R IC50(nM) cAMP [nM]
IKGRHYLNLVTRQRY (Cms moiety between the two parts; C-terminal amide) [H-Ile-Lys-Gly-Cms-Arg-His-Tyr-Leu-Asn-Leu-Val-Thr-Arg-Gln-Arg-Tyr-NH2],4.16,0.085
B2,146,32.2
B11,18.9,0.417

# Target: Y4R
# Assay: cell-based or functional assay
row,Binder,Y4R EC50(nM) FLIPR [nM]
1,IKRHYLNAVTRQRY (Pqa moiety between the two parts; C-terminal amide) [H-Ile-Lys-Pqa-Arg-His-Tyr-Leu-Asn-Ala-Val-Thr-Arg-Gln-Arg-Tyr-NH2],> 5000
2,IARHYLNLVTRQRY (N-terminal acetyl; Pqa moiety between the two parts; C-terminal amide) [Ac-Ile-Ala-Pqa-Arg-His-Tyr-Leu-Asn-Leu-Val-Thr-Arg-Gln-Arg-Tyr-NH2],3020
3,IARHYLNLVTRQRY (Pqa moiety between the two parts; C-terminal amide) [H-Ile-Ala-Pqa-Arg-His-Tyr-Leu-Asn-Leu-Val-Thr-Arg-Gln-Arg-Tyr-NH2],> 5000
4,B1,> 5000
5,B2,> 5000
6,B3,> 5000
7,AKRHYLNLVTRQRY (Pqa moiety between the two parts; C-terminal amide) [H-Ala-Lys-Pqa-Arg-His-Tyr-Leu-Asn-Leu-Val-Thr-Arg-Gln-Arg-Tyr-NH2],> 5000
8,B4,> 5000
9,B5,> 5000
10,B6,> 5000
11,B7,> 5000
12,B8,> 5000
13,B9,> 5000
14,B10,> 5000
